Laboratory results as given in US20190016812A1.

Target: human TNFSF9 (R&D Systems; #2295-4L-025/CF) (human) (UniProt P41273)
Experiment: MSD ELISA: TNFSF9 + 1 ug/mL antibody, binding to coated TNFRSF9

Chain of human TNFSF9 (R&D Systems; #2295-4L-025/CF) (human) (P41273 71-254 limits assumed): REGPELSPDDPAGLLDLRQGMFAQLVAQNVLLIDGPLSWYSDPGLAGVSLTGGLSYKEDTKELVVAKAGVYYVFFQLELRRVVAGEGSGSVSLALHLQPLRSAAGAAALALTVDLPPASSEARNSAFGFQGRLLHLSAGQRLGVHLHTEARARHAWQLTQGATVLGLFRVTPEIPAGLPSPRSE

Row | % inhibition of ligand receptor interaction [%] | Substance
1 | -4 | msIgG2a (antibody)
2 | 1 | mouse IgG1 isotype control antibody
3 | -5 | msIgG2b (antibody)
4 | 0 | huIgG1 (antibody)
